Assay [1] addresses SARS-CoV-2 (Wuhan) receptor-binding domain, soluble monovalent RBD (RBD-H) (SARS-CoV-2 (Wuhan), UniProt P0DTC2). The assay is described as follows: SPR. The note with it: both partners purified.
Assay [2] deals with Biotinylated SARS-CoV-2 (Wuhan) RBD, held on the SPR chip (SARS-CoV-2 (Wuhan), UniProt P0DTC2, biotin (EZ-Link Sulfo-NHS-LC-biotin); Lys15 within the N-terminal AviTag is named as the biotinylation site). The assay is described as follows: SPR. Particulars: both partners purified.

In doi:10.1101/2023.09.06.556503 (bioRxiv, 2023) one finds binding result and Kd data, which are given here for five molecules.

One may read the Kd as a measure of binding affinity in units of concentration. Lower therefore signals higher affinity.

B1: FI-3A antibody (IgG1) (antibody, V domains shown)
VH: EVQLLESGGGLIQPGGSLRLSCAASGFTVSSNYMSWVRQAPGKGLEWVSVIYSGGSTYYADSVKGRFTISRDNSKNTLYLQMNSLRAEDTAVYYCARDHVRPGMNIWGQGTMVTVSS
VL: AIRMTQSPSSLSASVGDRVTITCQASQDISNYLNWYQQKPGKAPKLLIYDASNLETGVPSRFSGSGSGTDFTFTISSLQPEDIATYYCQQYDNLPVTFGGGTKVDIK
notes: source: ExpiCHO, transfected, purified (MabSelect SuRe); copies: 2 + 2
In the case of B1, the binding result in assay [1] and in assay [2] was “binds” in each case.

B2: EY-6A antibody (IgG1) (antibody, V domains shown)
VH: EVQLVESGGGVVQPGRSLRLSCAASAFTFSSYDMHWVRQAPGKGLEWVAVISYDGSNKYYADSVKGRFTISRDNSKNTLYLQMNSLRAEDTAVYYCAKDGGKLWVYYFDYWGQGTLVTVSS
VL: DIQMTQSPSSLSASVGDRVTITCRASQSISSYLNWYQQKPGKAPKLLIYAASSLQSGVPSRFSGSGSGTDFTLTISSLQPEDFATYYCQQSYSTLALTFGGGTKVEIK
notes: copies: 2 + 2
Take B2: the binding result in assay [1] and in assay [2] was “binds” throughout.

B3: IgG1 FD-11A antibody (antibody, V domains shown)
VH: EVQLVESGGGVVQPGRSLRLSCAASGFTFSSYGMHWVRQAPGKGLEWVAVIWYDGSNKYYADSVKGRFTISRDNSKNTLYLQMNSLRAEDTAVYYCAKGPDILTGYYNYYYYGMDVWGQGTMVTVSS
VL: QSVLTQPPSVSGAPGQRVTISCTGSSSNIGAGYDVHWYQQLPGTAPKLLIYGNSNRPSGVPDRFSGSKSGTSASLAITGLQAEDEADYYCQSYDSSLSGFYVVFGGGTKLTVL
notes: also called FD-11A IgG; source: ExpiCHO, transfected, purified (MabSelect SuRe); copies: 2 + 2
With B3, the equilibrium dissociation constant (Kd) in assay [2] worked out at 1230 nM.

B4: REGN10987 antibody (IgG1) (antibody, V domains shown)
VH: QVQLVESGGGVVQPGRSLRLSCAASGFTFSNYAMYWVRQAPGKGLEWVAVISYDGSNKYYADSVKGRFTISRDNSKNTLYLQMNSLRTEDTAVYYCASGSDYGDYLLVYWGQGTLVTVSS
VL: QSALTQPASVSGSPGQSITISCTGTSSDVGGYNYVSWYQQHPGKAPKLMIYDVSKRPSGVSNRFSGSKSGNTASLTISGLQSEDEADYYCNSLTSISTWVFGGGTKLTVL
Turning to B4, in assay [2], the binding result was “binds”.

B5: FD-5D antibody (IgG1) (antibody, V domains shown)
VH: EVQLVESGGGLVQPGGSLRLSCAASGFTFSSYSMNWVRQAPGKGLEWVSYISSSSSTIYYADSVKGRFTISRDNAKNSLYLQMNSLRAEDTAVYYCASPGGITAAGTSVLFGYYGMDVWGQGTTVTVSS
VL: not shown
notes: as for B1
Consider B5, for which the binding result in assay [1] and in assay [2] was “binds” in each case.
